Broadly, the Km is the substrate concentration at which the rate is half of its maximum. For orientation: kcat means the maximal rate divided by the concentration of active sites. As usually defined, the kcat/Km is the second-order rate constant that governs catalysis at low substrate concentration.

2 proteins from paper PMC12492669, “Malic enzyme-based system for transhydrogenation between nicotinamide cofactors” (Synthetic and Systems Biotechnology, 2025) can be followed below.

Substrate in series [1]: NC(=O)C1=CN([C@@H]2O[C@H](COP(=O)(O)OP(=O)(O)OC[C@H]3O[C@@H](n4cnc5c(N)ncnc54)[C@H](OP(=O)(O)O)[C@@H]3O)[C@@H](O)[C@H]2O)C=CC1
The series can be described thus: initial rates of pyruvate reduction, Michaelis-Menten fit. Format: biochemical, Lactobacillus helveticus. Particulars: 10 mM pyruvate, 50 mM HEPES pH 7.5, 25 °C, varied: cofactor.

Substrate in series [2]: NC(=O)C1=CN([C@@H]2O[C@H](COP(=O)(O)OP(=O)(O)OC[C@H]3O[C@@H](n4cnc5c(N)ncnc54)[C@H](O)[C@@H]3O)[C@@H](O)[C@H]2O)C=CC1
The series is described as above. The settings on record: 10 mM pyruvate, 50 mM HEPES pH 7.5, 25 °C, varied: cofactor. Format: biochemical, Lactobacillus helveticus.

Substrate in series [3]: NC(=O)C1=CN([C@@H]2O[C@H](COP(=O)(O)OP(=O)(O)OC[C@H]3O[C@@H](n4ccc(N)nc4=O)[C@H](O)[C@@H]3O)[C@@H](O)[C@H]2O)C=CC1
Described as above. It counts as biochemical, Lactobacillus helveticus. The settings on record: 10 mM pyruvate, 50 mM HEPES pH 7.5, 25 °C, varied: cofactor.

Substrate in series [4]: NC(=O)C1=CN([C@@H]2O[C@H](COP(=O)(O)OP(=O)(O)OC[C@H]3O[C@@H](n4cnc5c(N)ncnc54)[C@H](OP(=O)(O)O)[C@@H]3O)[C@@H](O)[C@H]2O)C=CC1
The series can be described thus: purified protein, by the assay type. Also on record: initial rates at varied cofactor, absorbance at 340 nm, Michaelis-Menten fit, pH 7.5, 25 °C. The settings on record: pH 7.5; 25.0 °C. As for the experimental part:
(§1) For malic enzymes involved in oxidative decarboxylation, the solution contained 5 mM L-malate and 2 mM MgCl2. For malic enzymes involved in reductive carboxylation, the solution included 10 mM pyruvate, 30 mM NaHCO3 and 2 mM MgCl2. For DLDH∗ involved in pyruvate reduction, initial pyruvate concentration was 10 mM. All reactions were performed in 50 mM HEPES (pH 7.5) at 25 °C, with kinetic data fitted to the Michaelis-Menten equation via nonlinear regression using GraphPad Prism 10.0.2. All assays were performed in triplicate, and error bars show standard deviation. Enzyme activity assays of pure enzymes were conducted in a total volume of 0.1 mL. […] The enzyme activity was monitored by measuring the absorbance at 340 nm using a microplate spectrophotometer (Bio-Tek, VT, USA), with continuous absorbance tracking throughout the assay. One unit of pure enzyme activity was defined as the amount of enzyme required to catalyze the production of 1 μmol NADH, NCDH or NADPH per minute under the specified assay conditions. A molar absorption coefficient of 6220 M^−1 cm^−1 for NADH, NCDH or NADPH was used in the calculations.

Substrate in series [5]: NC(=O)C1=CN([C@@H]2O[C@H](COP(=O)(O)OP(=O)(O)OC[C@H]3O[C@@H](n4cnc5c(N)ncnc54)[C@H](O)[C@@H]3O)[C@@H](O)[C@H]2O)C=CC1
The experiment in a line: purified protein, by the assay type. Also noted: initial rates at varied cofactor, absorbance at 340 nm, Michaelis-Menten fit, pH 7.5, 25 °C. Particulars: pH 7.5; 25.0 °C. As for the experimental part: as §1

Substrate in series [6]: NC(=O)c1ccc[n+]([C@@H]2O[C@H](COP(=O)(O)OP(=O)(O)OC[C@H]3O[C@@H](n4cnc5c(N)ncnc54)[C@H](OP(=O)(O)O)[C@@H]3O)[C@@H](O)[C@H]2O)c1
The series can be described thus: purified protein, by the assay type. Also on record: initial rates at varied cofactor, absorbance at 340 nm, Michaelis-Menten fit, pH 7.5, 25 °C. Particulars: pH 7.5; 25.0 °C. As for the experimental part: as §1

B1: DLDH∗ (D-lactate dehydrogenase, V152R/N213E mutant) (Lactobacillus helveticus; N213E/V152R) (protein)
chain: TKVFAYAIRKDEEPFLNEWKEAHKDIDVDYTDKLLTPETAKLAKGADGVVVYQQLDYTADTLQALADAGVTKMSLRNVGVDNIDMDKAKELGFQITNVPVYSPNAIAEHAAIQAARVLRQDKRMDEKMAKRDLRWAPTIGREVRDQVVGVRGTGHIGQVFMRIMEGFGAKVIAYDIFKNPELEKKGYYVDSLDDLYKQADVISLHVPDVPAEVHMINDKSIAEMKDGVVIVNCSRGRLVDTDAVIRGLDSGKIFGFVMDTYEDEVGVFNKDWEGKEFPDKRLADLIDRPNVLVTPHTAFYTTHAVRNMVVKAFNNNLKLINGEKPDSPVALNKNKF
notes: recombinant; only the V152R/N213E mutant tested; purification and tag not described in main text
Consider B1, for which the figures for the Km in series [1], in series [2] and in series [3] were 2110 µM, 4840 µM and 71.1 µM, respectively.

B2: ME (Escherichia coli K-12) (protein)
chain: MEPKTKKQRSLYIPYAGPVLLEFPLLNKGSAFSMEERRNFNLLGLLPEVVETIEEQAERAWIQYQGFKTEIDKHIYLRNIQDTNETLFYRLVNNHLDEMMPVIYTPTVGAACERFSEIYRRSRGVFISYQNRHNMDDILQNVPNHNIKVIVVTDGERILGLGDQGIGGMGIPIGKLSLYTACGGISPAYTLPVVLDVGTNNQQLLNDPLYMGWRNPRITDDEYYEFVDEFIQAVKQRWPDVLLQFEDFAQKNAMPLLNRYRNEICSFNDDIQGTAAVTVGTLIAASRAAGGQLSEKKIVFLGAGSAGCGIAEMIISQTQREGLSEEAARQKVFMVDRFGLLTDKMPNLLPFQTKLVQKRENLSDWDTDSDVLSLLDVVRNVKPDILIGVSGQTGLFTEEIIREMHKHCPRPIVMPLSNPTSRVEATPQDIIAWTEGNALVATGSPFNPVVWKDKIYPIAQCNNAFIFPGIGLGVIASGASRITDEMLMSASETLAQYSPLVLNGEGMVLPELKDIQKVSRAIAFAVGKMAQQQGVAVKTSAEALQQAIDDNFWQAEYRDYRRTSI
notes: wild-type, recombinant
As to B2, the Km in series [4] is 520 ± 120 µM; in series [5], 1080 ± 350 µM; in series [6], 11500 ± 1200 µM. Also, the figures for the kcat in series [4], in series [5] and in series [6] were 0.01 s⁻¹, 1.88 ± 0.35 s⁻¹ and 0.58 ± 0.05 s⁻¹, respectively. Moreover, the kcat/Km in series [4] stood at 20 M⁻¹ s⁻¹; in series [5], 1740 M⁻¹ s⁻¹; in series [6], 50 M⁻¹ s⁻¹.
